What was measured:
[1] = molecular target: LTBP-2 C(H) F2, sub-fragment of human LTBP-2C(H) (six tandem EGF-like motifs, EGFs 9-14) (human); assay: ELISA; solid phase binding assay, saturation curve: LTBP-2 or fragment coated on wells, increasing FGF-2 (0–30 ng/ml; 0–1.8 or 0–1.5 nM), 3 h at 37°C; BSA signal subtracted, bound FGF-2 from a standard ELISA curve; Kd by non-linear regression (GraphPad Prism) for a single binding site (Fig 3, Fig 4B, D, E)
[2] = molecular target: recombinant human LTBP-2 central fragment LTBP-2C(H) (human); assay: as above

Kd [1]: 1.03 nM | Kd [2]: 1.02 nM
Substance: recombinant human fibroblast growth factor-2 (FGF-2) (from UniProt P09038 143-288) (ligand)

— paper PMC4532469
